Data from paper PMC4704560, “Biophysical Characterization of Nucleophosmin Interactions with Human Immunodeficiency Virus Rev and Herpes Simplex Virus US11” (PLoS ONE, 2015).

B1: NPM1 histone binding domain (NPM1^HBD, aa 120-241), tag cleaved (domain or fragment, UniProt P06748 120-241, looked up)
chain: EEDAESEDEEEEDVKLLSISGKRSAPGGGSKVPQKKVKLAADEDDDDDDEEDDDEDDDDDDFDDEEAEEKAPVKKSIRDTPAKNAQKSNQNGKDSKPSSTPRSKGQESFKKQEKTPKTPKGP
notes: source: E. coli (BL21(DE3), pLysS BL21(DE3), CodonPlusRIL or BL21(Rosetta)), purified
B2: NPM1 oligomerization domain (NPM1^OD, aa 1-122), tag cleaved (domain or fragment, UniProt P06748 1-122, looked up)
chain: MEDSMDMDMSPLRPQNYLFGCELKADKDYHFKVDNDENEHQLSLRTVSLGAGAKDELHIVEAEAMNYEGSPIKVTLATLKMSVQPTVSLGGFEITPPVVLRLKCGSGPVHISGQHLVAVEED
notes: as for B1
B3: HIV-1 Rev full-length (Rev^FL, aa 1-116), tag cleaved (natural protein)
chain: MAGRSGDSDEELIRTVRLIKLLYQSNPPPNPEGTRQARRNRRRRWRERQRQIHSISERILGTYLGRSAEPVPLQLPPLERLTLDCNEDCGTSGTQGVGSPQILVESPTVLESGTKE
B4: NPM1 histone and RNA-binding domains (NPM1^HRBD, aa 120-294), tag cleaved (domain or fragment, UniProt P06748 120-294, looked up)
chain: EEDAESEDEEEEDVKLLSISGKRSAPGGGSKVPQKKVKLAADEDDDDDDEEDDDEDDDDDDFDDEEAEEKAPVKKSIRDTPAKNAQKSNQNGKDSKPSSTPRSKGQESFKKQEKTPKTPKGPSSVEDIKAKMQASIEKGGSLPKVEAKFINYVKNCFRMTDQEAIQDLWQWRKSL
notes: also called NPM^HRBD; source: E. coli (BL21(DE3), pLysS BL21(DE3), CodonPlusRIL or BL21(Rosetta)), purified

Legend:
[1] = molecular target: HSV-1 US11 full-length (US11^FL, aa 1-152), tag-free (HSV-1) (UniProt P04487); assay: SEC-MALS; aSEC (Superdex 200 10/300) with MALS/RI of NPM1^OD, US11^FL and their mixture, RNase A treated; 30 mM Tris-HCl pH 7.5, 150 mM NaCl, 5 mM MgCl2, 3 mM DTT
FITC-labelled CIGB-300 = assay: fluorescence polarisation; increasing amounts of NPM1 variants, GST-Rev, GST-US11 or GST titrated into 0.1 uM FITC-labelled CIGB-300; 25 C; 30 mM Tris/HCl pH 7.5, 150 mM NaCl, 5 mM MgCl2, 1 mM TCEP; quadratic ligand binding equation
[2] = molecular target: HSV-1 US11 full-length (US11^FL, aa 1-152), tag-free (HSV-1) (UniProt P04487); assay: ITC; 1.2 mM NPM1^FL titrated into 60 uM US11^FL; both treated with RNase A; 25 C; apparent Kd; endothermic
[3] = molecular target: B3; assay: ITC; NPM1 variants titrated into Rev^FL (tags cleaved); 25 C; 30 mM Tris-HCl pH 7.5, 150 mM NaCl, 5 mM MgCl2, 1 mM TCEP; VP-ITC; details: both partners purified
[4] = molecular target: the molecule itself; assay: SEC-MALS; aSEC (Superdex 200 10/300) with MALS/RI of NPM1^OD, US11^FL and their mixture, RNase A treated; 30 mM Tris-HCl pH 7.5, 150 mM NaCl, 5 mM MgCl2, 3 mM DTT
[5] = molecular target: T1, NPM1 full-length (NPM1^FL, aa 1-294), tag cleaved (UniProt P06748 1-294); assay: ITC; NPM1 variants titrated into Rev^FL (tags cleaved); 25 C; 30 mM Tris-HCl pH 7.5, 150 mM NaCl, 5 mM MgCl2, 1 mM TCEP; VP-ITC; details: both partners purified
T1 construct: source: E. coli (BL21(DE3), pLysS BL21(DE3), CodonPlusRIL or BL21(Rosetta)), purified

[6] = molecular target: B2; assay: as above; details: both partners purified
[7] = molecular target: B4; assay: as above; details: both partners purified
[8] = molecular target: B1; assay: as above; details: both partners purified

| Molecule | Kd (FITC-labelled CIGB-300) | dH [3] | stoichiometry N [3] | also measured |
| --- | --- | --- | --- | --- |
| NPM1 oligomerization domain (NPM1^OD, aa 1-122), tag cleaved (from UniProt P06748 1-122) (domain or fragment) | 6.6 µM |  |  | stoichiometry N (US11^FL monomer per NPM1^OD pentamer) [1]: 1 |
| NPM1 full-length (NPM1^FL, aa 1-294), tag cleaved (from UniProt P06748 1-294) (natural protein) | 1.4 µM |  |  | Kd [2]: 4 µM |
| B1 |  | -1.71 ± 0.2 kcal/mol | 0.85 sites |  |
| B2 |  | -3.79 ± 0.11 kcal/mol | 0.94 sites | stoichiometry N [4]: 5 |
| B3 |  |  |  | Kd [5]: 0.41 µM; Kd [6]: 0.013 µM; Kd [7]: 18 µM; Kd [8]: 5.8 µM |
| B4 |  | -3.23 ± 0.31 kcal/mol | 0.76 sites |  |
